Our source for the Kd, koff and kon values is PMC6445466.

This test addresses BAD16-C (residues 204-352, B. afzelii strain PGau) (Borrelia afzelii strain PGau). As to the kind of experiment: SPR; Biacore T200, 25°C; borrelial protein immobilised by amine coupling; C1r as analyte, single-cycle kinetics, five-fold dilution series 1.6 to 1000 nM; HBS-T with 5 mM CaCl2; 1:1 kinetic fit; triplicate. For orientation: SPR reads the build-up and loss of mass on a sensor chip optically.

B1: human C1r, full-length enzyme (enzyme)
chain: SIPIPQKLFGEVTSPLFPKPYPNNFETTTVITVPTGYRVKLVFQQFDLEPSEGCFYDYVKISADKKSLGRFCGQLGSPLGNPPGKKEFMSQGNKMLLTFHTDFSNEENGTIMFYKGFLAYYQAVDLDECASRSKSGEEDPQPQCQHLCHNYVGGYFCSCRPGYELQEDTHSCQAECSSELYTEASGYISSLEYPRSYPPDLRCNYSIRVERGLTLHLKFLEPFDIDDHQQVHCPYDQLQIYANGKNIGEFCGKQRPPDLDTSSNAVDLLFFTDESGDSRGWKLRYTTEIIKCPQPKTLDEFTIIQNLQPQYQFRDYFIATCKQGYQLIEGNQVLHSFTAVCQDDGTWHRAMPRCKIKDCGQPRNLPNGDFRYTTTMGVNTYKARIQYYCHEPYYKMQTRAGSRESEQGVYTCTAQGIWKNEQKGEKIPRCLPVCGKPVNPVEQRQRIIGGQKAKMGNFPWQVFTNIHGRGGGALLGDRWILTAAHTLYPKEHEAQSNASLDVFLGHTNVEELMKLGNHPIRRVSVHPDYRQDESYNFEGDIALLELENSVTLGPNLLPICLPDNDTFYDLGLMGYVSGFGVMEEKIAHDLRFVRLPVANPQACENWLRGKNRMDVFSQNMFCAGHPSLKQDACQGDSGGVFAVRDPNTDRWVATGIVSWGIGCSRGYGFYTKVLNYVDWIKKEMEEED
Broadly, the Kd is a measure of binding affinity in units of concentration. Low readings indicate higher affinity, high ones lower affinity. Usually koff stands for the rate constant with which the complex falls apart. Read a low koff as slow dissociation. The term kon denotes the rate constant with which the complex forms. Low values mean slower complex formation, high ones faster complex formation. On to B1, for which the Kd was found to be 2.2 nM, the koff is 4.3e-05 s⁻¹ and the kon came out at 19000 M⁻¹ s⁻¹.
